Test results as given in article PMC8113581 (2021).

Target: SARS-CoV-2 RBD (WT) (SARS-CoV-2, UniProt P0DTC2)
Test: SPR

B1: P4A1 (antibody, V domains shown)
VH: EVQLVESGGGLIQPGGSLRLSCAASGFIVSSNYMSWVRQAPGKGLEWVSIIYSGGSTFYADSVKGRFTISRDNSKNTLYLQMNSLRVEDTAVYYCARDLQELGSLDYWGQGTLVTVSS
VL: DIQMTQSPSSVSASVGDRVTITCRASQGISSWLAWYQQKPGKAPKLLIYAASSLQSGVPSRFSGSGSGTDFTLTISSLQPEDFATYYCQEANSFPYTFGQGTKLEIK
Kd: 102 pM
